# Assay results taken from US8795627B2, “Treatment of liver disorders by administration of RAP conjugates” (Raptor Pharmaceuticals Inc., priority 2007, dated 2014).
# pKd: −log10 of the molar value. Bridge positions count the residues as written; N and C are the ends. * marks the point of attachment. Biotin = O=C1N[C@H]2[C@H](CS[C@H]2CCCCC(=O)*)N1
# Assays:
# [1] = in vivo, iv; cited from earlier work
# [2] = target: T1, LRP1-C2 (Homo sapiens, UniProt Q07954); assay: Inhibition of RAP d3 binding to LRP1-C2, solid phase assay (streptavidin multimerization); design: R&D Systems, amino acids 786-1165, with C-terminal Fc tag; purchased R&D Systems
# T1 sequence (Q07954 805-1184): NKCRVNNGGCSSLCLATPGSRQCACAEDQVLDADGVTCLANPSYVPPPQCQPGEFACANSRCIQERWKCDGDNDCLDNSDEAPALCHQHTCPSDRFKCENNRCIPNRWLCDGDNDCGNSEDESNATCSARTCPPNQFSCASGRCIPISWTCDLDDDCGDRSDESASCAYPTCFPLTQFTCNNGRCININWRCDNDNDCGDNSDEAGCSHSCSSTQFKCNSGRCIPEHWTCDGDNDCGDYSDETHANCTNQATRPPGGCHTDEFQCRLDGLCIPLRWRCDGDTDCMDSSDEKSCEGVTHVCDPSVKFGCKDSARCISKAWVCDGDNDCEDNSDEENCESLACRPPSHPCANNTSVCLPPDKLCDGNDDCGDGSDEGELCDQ
# From the text: (§1) Control wells contained no added inhibitor. […] Excess HRP conjugate was removed and wells washed. Color was developed using TMB reagents (BioRad, Hercules, Calif.).
# [3] = in vivo
# [4] = test system: wild-type CHO-K1 cells; assay: MTT cell viability after toxin delivery, wild-type CHO-K1; details: 48 hours
# Procedure: (§2) In order to determine whether a RAP peptide conjugated to a cytotoxic agent could effectively deliver the toxin to the cell and initiate cell death, an in vitro assay was used to assess delivery of toxin via the RAP-LRP1 binding and internalization pathway.
# (§3) Wild-type and LRP1-deficient CHO-K1 cells were grown in BioWhittaker Ultra-CHO supplemented with 5% fetal bovine serum. Cells were seeded in 12-well plates 48 hours prior to the experiment. […] The mixture was diluted into growth media to 100 nM and added to wells in duplicate. […] Cells were incubated for 48 hours at 37° C., 5% CO2 in a humidified chamber. Cell viability for each treatment condition was determined with an MTT assay kit (Invitrogen, San Diego).
# [5] = target: T1, LRP1-C2; assay: Inhibition of RAP d3 binding to LRP1-C2, solid phase assay (anti-biotin antibody, preincubation with receptor); details: fit parameter of inhibition curve, 2 nM RAP d3
# Procedure: Briefly, recombinant human LRP1 cluster II (R&D Systems, amino acids 786-1165, with C-terminal Fc tag, 1 μg) was used to coat Nunc MAXISORP™ 96-well plates in TBS pH 8 supplemented with 5 mM CaCl2 (TBSC) overnight at 4° C. Wells were washed with TBSC and blocked with TBSC containing 2% BSA.
# Since the ligand binding competence of CR pairs requires calcium, identical binding reactions were done in the presence of 50 mM EDTA to provide a measure of non-specific binding. Control wells contained no added inhibitor. Wells were washed with TBS supplemented with 5 mM CaCl2 and 0.05% Tween-20. Bound ligand was detected with either anti-5-peptide-HRP conjugate (Abcam) or anti-α-2-macroglobulin-HRP conjugate (Abcam). Excess HRP conjugate was removed and wells washed. Color was developed using TMB reagents (BioRad, Hercules, Calif.). Absorption at 450 nm was measured with a microplate spectrophotometer (Molecular Devices, Palo Alto).
# The same procedure was performed for the controls; peptide alone, antibody alone and full-length RAP.
# [6] = in vivo, iv; cited from earlier work; remark: listed apart in the source
# [7] = rat, in vivo, iv; cited from earlier work
# [8] = target: T2, recombinant human LRP1 cluster II (Homo sapiens, UniProt Q07954); assay: Solid phase binding assay, affinity for LRP1 cluster II
# T2 construct: R&D Systems, amino acids 786-1165, with C-terminal Fc tag; purchased R&D Systems
# T2 sequence (Q07954 805-1184): T1 sequence (Q07954 805-1184)
# From the text: as §1
# [9] = test system: LRP1-deficient CHO-K1 cells; assay: MTT cell viability after toxin delivery, LRP1-deficient CHO-K1; details: LRP-deficient CHO-K1, 1 μM, 48 hours
# Procedure: as §2, §3
# [10] = test system: hepatocellular carcinoma; details: systemic chemotherapy, HCC patients; cited from earlier work
compound,measurement,setting,value
"streptavidin: streptavidin alone, control (35S-labeled in bio-distribution studies) [reference compound]",tissue accumulation,[1],"accumulate in kidney, but not significantly in liver"
same,inhibitory effect on RAP d3 binding,[2]; in words,no inhibitory effect
same,"uptake in the woodchuck liver, mean",[3],435 PSL/mm^2
biotin-GGSGGCGFREELKHFEAKIEKHNHYQKQLEIAHEKLRHAESVGDGERVSRS REKHALLEGRTKELGYTVKKHLQDLSGGC [mini-RAPc],effect on cell survival,"[4]; 100 nM, cell type not specified (wild-type and LRP1-deficient CHO-K1 tested)",no significant effect on cell survival
"RAP: mature full-length receptor-associated protein, 323 amino acids (SEQ ID NO: 1); Tables 3 and 4, b198",fold better EC50 than peptide assembled on streptavidin,[2],about 10 fold
same,Maximum binding,"[2]; fit parameter of inhibition curve, 2 nM RAP d3",0.29
same,Maximum binding,[5],0.74
same,toxicity,[6],no measurable toxicity
same,"accumulation in heart, brain, muscle or kidney",[7],< 1 % of injected dose
same,circulating half-life,[7],less than a minute
Biotin-GGSGGCGKHFEAKIEKHNHYQKQLEIAHEKLRHAESVGDGERVSRSREKHALLEGRTKELGYTVKKHLQDGC (disulfide 6-72 (inferred)) [mRAP-8c],pKd,[8],~8.40
Saporin [reference compound],loss of viable cells,[9],~35%
same,loss of viable cells,"[4]; wild-type CHO-K1, 1 μM",about 55%
Biotin-GGSGGCEAKIEKHNHYQKQLEIAHEKLRHAESVGDGERVSRSREKHALLEGRTKELGYTVKKHGC (disulfide 6-65 (inferred)) [mRAP-14c],pKd,[8],~7.68
COc1cccc2c1C(=O)c1c(O)c3c(c(O)c1C2=O)C[C@@](O)(C(=O)CO)C[C@@H]3O[C@H]1C[C@H](N)[C@H](O)[C@H](C)O1 [adriamycin],response rates,[10],15-20%
